For assay [1], the target named is GFP-SNX4 (UniProt O95219). In words: co-IP.
For assay [2], the target named is T1, GFP-SNX4, O95219.
T1 chain: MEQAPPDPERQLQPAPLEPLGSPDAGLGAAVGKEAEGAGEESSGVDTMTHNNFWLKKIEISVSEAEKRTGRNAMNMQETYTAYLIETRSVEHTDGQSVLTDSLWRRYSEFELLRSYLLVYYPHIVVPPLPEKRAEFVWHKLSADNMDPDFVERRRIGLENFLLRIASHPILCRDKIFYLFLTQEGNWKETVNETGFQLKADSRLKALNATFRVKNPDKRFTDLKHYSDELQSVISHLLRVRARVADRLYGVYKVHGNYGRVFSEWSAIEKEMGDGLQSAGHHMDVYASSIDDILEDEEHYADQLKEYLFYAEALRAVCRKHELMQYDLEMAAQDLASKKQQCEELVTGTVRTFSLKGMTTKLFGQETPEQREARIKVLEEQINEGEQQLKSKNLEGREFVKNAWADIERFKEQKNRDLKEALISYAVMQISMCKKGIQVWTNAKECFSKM
In words: co-IP. The settings on record: remark: other sources report otherwise.

Consider “HA-SNX32 A226E (from UniProt Q86XE0 1-403) (natural protein)”, for which the ratio of HA to GFP band intensity in assay [1] was found to be 0.65.

B1: HA-SNX32 FL, Q86XE0 1-403 (natural protein)
chain: METYAEVGKEGKPSCASVDLQGDSSLQVEISDAVSERDKVKFTVQTKSCLPHFAQTEFSVVRQHEEFIWLHDAYVENEEYAGLIIPPAPPRPDFEASREKLQKLGEGDSSVTREEFAKMKQELEAEYLAIFKKTVAMHEVFLQRLAAHPTLRRDHNFFVFLEYGQDLSVRGKNRKELLGGFLRNIVKSADEALITGMSGLKEVDDFFEHERTFLLEYHTRIRDACLRADRVMRAHKCLADDYIPISAALSSLGTQEVNQLRTSFLKLAELFERLRKLEGRVASDEDLKLSDMLRYYMRDSQAAKDLLYRRLRALADYENANKALDKARTRNREVRPAESHQQLCCQRFERLSDSAKQELMDFKSRRVSSFRKNLIELAELELKHAKASTLILRNTLVALKGEP
As to B1, the ratio of HA to GFP band intensity in assay [2] was 0.92.
